Substrate: CCCCCCCCCCCCC/C=C/[C@@H](O)[C@@H](N)CO
Experiment: purified SK2 Michaelis-Menten kinetics with [γ-32P]ATP
Assay type: biochemical, Homo sapiens
Details: Mg2+

B1: sphingosine kinase 2 (SK2) (Homo sapiens) (protein)
chain: MNGHLEAEEQQDQRPDQELTGSWGHGPRSTLVRAKAMAPPPPPLAASTPLLHGEFGSYPARGPRFALTLTSQALHIQRLRPKPEARPRGGLVPLAEVSGCCTLRSRSPSDSAAYFCIYTYPRGRRGARRRATRTFRADGAATYEENRAEAQRWATALTCLLRGLPLPGDGEITPDLLPRPPRLLLLVNPFGGRGLAWQWCKNHVLPMISEAGLSFNLIQTERQNHARELVQGLSLSEWDGIVTVSGDGLLHEVLNGLLDRPDWEEAVKMPVGILPCGSGNALAGAVNQHGGFEPALGLDLLLNCSLLLCRGGGHPLDLLSVTLASGSRCFSFLSVAWGFVSDVDIQSERFRALGSARFTLGTVLGLATLHTYRGRLSYLPATVEPASPTPAHSLPRAKSELTLTPDPAPPMAHSPLHRSVSDLPLPLPQPALASPGSPEPLPILSLNGGGPELAGDWGGAGDAPLSPDPLLSSPPGSPKAALHSPVSEGAPVIPPSSGLPLPTPDARVGASTCGPPDHLLPPLGTPLPPDWVTLEGDFVLMLAISPSHLGADLVAAPHARFDDGLVHLCWVRSGISRAALLRLFLAMERGSHFSLGCPQLGYAAARAFRLEPLTPRGVLTVDGEQVEYGPLQAQMHPGIGTLLTGPPGCPGREP
Km: 10.5 µM

Reference: paper PMC3148273
